Experiment: label from the status in PepcDB records
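Further: failed if final PepcDB status was selected cloned or expressed and not failed if soluble or beyond.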

Row | Sequence | protein production
1 | MQPISILFLGIDDNDGRRKKGQDAEHSRSDAMILTTFNQSKHQIRMLSIPRDTISYIPKVGYYDKITHAHAYGGPIAAMDSVEATMNVPVDYYVRVNMKAFVEAVNELGGIYYDVPYDLNEPNTDDTGKIKIKKGYQKLNGDEALAVARTRHHDSDLKRGQRQMELIKILFQKAQEVDSIDKLDNVIQIVGKNAKHNLTNSEIKALAKMYLTNDVEIKTAQLKGKDDMLNGIYYYHPSVESIQKYANLLRKDLELSPINDKNDFLDQRVINHYGSLIPLTPLDSSLLRLEHHHHHH | not failed
2 | MQPTGNQIQQNQQQQQQLIMRVPKQEVSVSGAARRYVQQAPPNRPPRQNHQNGAIGGKKSSVTIQEVPNNAYLETLNKSGNNKVDDDKLPVFLIKLWNIVEDPNLQSIVHWDDSGASFHISDPYLFGRNVLPHFFKHNNMNSMVRQLNMYGFRKMTPLSQGGLTRTESDQDHLEFSHPCFVQGRPELLSQIKRK | not failed
3 | MQPTGNQIQQNQQQQQQLIMRVPKQEVSVSGAARRYVQQAPPNRPPRQNHQNGAIGGKKSSVTIQEVPNNAYLETLNKSGNNKVDDDKLPVFLIKLWNIVEDPNLQSIVHWDDSGASFHISDPYLFGRNVLPHFFKHNNMNSMVRQLNMYGFRKMTPLSQGGLTRTESDQDHLEFSHPCFVQGRPELLSQIKRKQSARTVEDKQVNEQTQQNLEVVMAEMRAMREKAKNMEDKMNKLTKENRDMWTQMGSMRQQHARQQQYFKKLLHFLVSVMQPG | failed
4 | MQQKDAVPDTAKKLKAPLTGLKTEQKVTERRPVAVVVNNHPKARPQSGLSKADIVIEALAEGQITRFLAIFQSQMPETVGPVRSAREYFVTLSNGFDSIFVHHGWSPGAKKQLESGAADYMNGLDFDGSLFWRADFSKPPHNSYTSYDYIKKAAEQKGYKLKQETNPLLFQTSDAKPANESYNVRVDYGTNNVTNLVEYNYDKKAEFYTRSSDGVITTDRETGKPVAMQNIFIVEASHHIIDQDGRRDIDLESGGKGLLFQHGNVIETDWKQVNGRIVPVKDGKWLPFVPGKTWINIVPDLDAASISKGEGVLEHHHHHH | not failed
5 | MQQLQNVIETAFERRADITPANVDTVTREAITHVIDLLDTGALRVAEKIDGQWVTHQWLKKAVLLSFRINDNQVMEGAETRYYDKVPMKFAGYDEARFQREGFRVVPPATVRKGAFIARNTVLMPSYVNIGAFVDEGTMVDTWATVGSCAQIGKNVHLSGGVGIGGVLEPLQANPTIIEDNCFVGARSEVVEGVIVEEGSVISMGVFIGQSTRIYDRETGEVHYGRVPAGSVVVSGNLPSKDGSYSLYCAVIVKKVDAKTRSKVGINELLRTID | not failed
6 | MQQYAPTIQRALLFGLLIILLLLGFHILKYFIVPVVWAAIIAYMTWPIYIGIQRFCGENRPNLSATLMISLIILVIGIPLTFAVFMLQHEGRNLFIELQQQIFSGHLSAPDFIRELPLVGNEITRILNEINTNPSNLTQNLSLWIQSHMGYGRFVLSEISKNLVKLCFALLSLFFFYRDGHTILNQVSKALEMVIGPRIHHYMDTISETTRAVVYGVGLTAVAQAILAGLSYFVAGVPNPMVLTIVTFLLALIPFGTPLAYTSVALWLFSQGQMMGAIGVMLWGVCIVSTSDNVIRPLVISGATQIPFLLIMFGVLGGLASFGLVGLFIGPVILAILLAIWREWLHENIEPEPVPKATLIYDDLDDQTKL | failed
7 | MQRAAVFDVDGTLVDTNHLHVTTWWEAFRQAGHRVPMHAVHRAVGLASGDLVARLLGEDRDKEQDAELSAAHKALYGQYFDRLPALPGAGDLLRRLAADGWTVVLATSAGGSELGALRRAIDADDAIEATASADDVDAGKPAPEPVEHALELAGVPAERAVFVGDTVWDMRAGSRAGVRCVGVLCGGLPRADLEEAGAEAVYADPADLLASLRGSPLA | failed
8 | MQRANREHLEIISLEEISMLVSSDFDLPEVLQHVTAKVATQLKVSVCNIYLREGDEVVLAATHGFDPAFIGKIRIKIGDGITGSVARDGQYISLSRASQDPRYRYFPELQEEKYNSMLSFPIGDKKEVYGVINLNTTSIRSFHEDEIYFVSIIANLILTAIKLRQQVASSRKAAEASA | not failed
9 | MQRDVSSCNTYNYGDALYWDARYVQDALSFDWYQCYSSLRPFVRSFVSTSSRVLMVGCGNSLMSEDMVKDGYEDIMNVDISSVAIEMMQTKYASVPQLKYMQMDVRDMSYFEDDSFDTIIDKGTLDSLMCGSDALLSASRMLGEVSRLIKPGGTYFLITYGDPKVRMPHLTRSAYNWKISLYIIPRPGFKRPESCSSSAKSCMEAIPITSEGMLPHDYVLEDPDSHFIYICKKKDEDEEAQLPSYPLMEDVL | failed
10 | MQREKVDVLVIGAGPAGTVAASLVNKSGFKVKIVEKQKFPRFVIGESLLPRCMEHLDEAGFLDAVKAQGFQQKFGAKFVRGKEIADFNFSDQFSNGWNWTWQVPRGNFDKTLADEAARQGVDVEYEVGVTDIKFFGTDSVTTIEDINGNKREIEARFIIDASGYGRVIPRMFGLDKPSGFESRRTLFTHIKDVKRPVAAEMEGNRITAVVHKPKVWIWVIPFSNGNTSVGFVGEPSYFDEYTGTPEERMRAMIANEGHIAERFKSEEFLFEPRTIEGYAISASKLYGDGFVLTGNATEFLDPIFSSGATFAMESGSKGGKLAVQFLKGEEVNWEKDFVEHMMQGIDTFRSFVTGWYDGTLHAVFFAKNPDPDHKRMICSVLAGYVWDKNNPFVKKHNTILKTLAKVIQMGEEALEHHHHHH | not failed
11 | MQRNLSHIISQATSAPLLLEPAYARVFFCALGRESGINSLHIPGNNESLDQSDMALVTGDFMATGKPQARFYQVVNGIAVLPVTGTLVHKLGGMRPFSGMTGYDGVTARLQQAVSDPEVKGILLDIDSPGGQAAGAFDCADMIYRMREQKPVWALANETACSAAMLLAAACSHRLVTQTSRMGSIGVVMAHTSYAEKLKQEGIDITLIYSGAHKADLTPSQKLPESVYADYQQRMDEARKMFAEKVARYTGLSVDAVMATEAAVYDGQAIITTGLADGMVNAADAIGVMAEAINSNKTGGTMPELSAADAVTQENQRVMGILGCPEARGHEALAQMLAGQPGMSVAQAKSILAAAAPADTTSTADRILALEEAGGRETLAQTLAAMPEMTVEQARTILAASPIAAATSLHDAVMALDEAKGREELAEKLAVMPGMTTDQARDLLAAAPDKSGNAGLSMNNAFDAFMQSHSPGPISGGKGHSNDTETTLLMSIPGTSAT | failed
12 | MQRTGELPAEHVPVILESSGAGDFHLIDSGNGLKLEQYGDYRVVRPEAQALWRPLVPDRVWQNADAIFTGDTDEDGMGRWRFPKEALGETWPLSLLGVEFLGRFTAFRHVGVFPEQIVHWEWLKNAVETADRPLKVLNLFGYTGVASLVAAAAGAEVTHVDASKKAIGWAKENQVLAGLEQAPIRWICEDAMKFIQREERRGSTYDIILTDPPKFGRGTHGEVWQLFDHLPLMLDICREILSPKALGLVLTAYSIRASFYSMHELMRETMRGAGGVVASGELVIREAGLDGKTPGRVLSTSLFSRWEPK | not failed
13 | MQRTLGEIMKIYFATGNPNKIKEANIILKDLKDVEIEQIKISYPEIQGTLEEVAEFGAKWVYNILKKPVIVEDSGFFVEALNGFPGTYSKFVQETIGNEGILKLLEGKDNRNAYFKTVIGYCDENGVRLFKGIVKGRVSEEIRSKGYGFAYDSIFIPEEEERTFAEMTTEEKSQISHRKKAFEEFKKFLLDRI | not failed
14 | MQRYDAVISGAGPAGCSAALSLAQKGRRVLLIDKARFPREKICGDGVTAASTELLEEMGVLELLRQRPGSLTEFRGATFVSPGGTVVQGRILRNGHLSGSSYVIPRMVLDDSLVSRVKEHSSITFLDKTTVTGLVMDGDRARGVATSAGEFCGRIIIAADGAYSPIAKQLDLWNRDKRQQGFAMRAWFSGVEGLGDSIELCYDKAMLPGYGWIFPAGEQRANVGVFLLPRFADQRSTKRLFKSFVKENAFAAARLKNAVMEPGSLKSWPLPFGSFAGRRGRGNVLLAGDAGSFIDPLTGEGIYYALKTGRYAAEAVANALERNDESAALTRYEQLWRGEFSGRVYFPGYAFQHFMNNSWFVDTFMRYTAKKQHRADLLADVVAHNRKRRELFKLLNPFYLEHHHHHH | failed
15 | MQSINFRTARGNLSEVLNNVEAGEEVEITRRGREPAVIVSKATFEAYKKAALDAEFASLFDTLDSTNKELVNRLEHHHHHH | not failed
16 | MQSNLLAVLFALASALTIAWGTVVRHRIALRTPKDGSLRSSPLLNALMTPMWWAGMSTAMLAYFLQTVALGFGTLLVVQPVLVLSLMFTLPLSARFNGYRLRRTEIFWATLLTVAVGIMIVLGRPLPGNPHPPLDRWIPVLLVGVAVMGGMWLLAEYVLKKDKALILGLVTGALFGYVAVMSKAAVDLFVHQGITGLILNWEGYGLILTALLGTIVQQYSFNAGELQKSLPAMTIAEPIVAFSLGYLVLGEKFQVVDWEWIAMGIALLVMIVSTIALSRTSTMPAGSKR | failed
17 | MQSPEKIDPTWEDSVIDSFISFVRSYDGDFTCIYKLADTVSDEYSLQKIIDFLSSTPQGKQAFQKRPQLGVVDLPKLHQLPTDTLGYVYADQMLQNNLQPLQSHEIDNDYQFFKTHITETHDLWHIVTGADTSILGEIQLEAFYVSQLYASRFWLALLAKNLLKAVIYDIELSTPYMDAISTGWVMAKQAKPLFGLEWNLLWEKPLADVRTSLNIILPVNLEHHHHHH | not failed
18 | MQSPNNDYNATSKRGWFTRFLDGVEWLGNLLPHPITLFAVFCLFIIFISGIAAYFGVSAVDPRDGETVIKAVSLLNAEGIQRIVTNLVTNFTGFTPLGTVLVALLGVGVAERSGLISAAMRGLVMKAPPRLVTVTIVFAGVISNTAAELGYVVLVPLAAMIFYGLGRHPLAGLSAAFAGVSAGYSANLLIGTVDPLLSGITEEAAKIIDPAYTVGAEANWYFMMVSTFLIAIMGALITDKIVEPKLGKYNKDEASIDLSDQSSMDPLNKQEKRGLIYAGLSVLVLAGILALTVVPEWGILRHPETGDVKGSPFLKGVVVYIFFFFAIPGFVYGRTVETMRNDRDVIDAMSHSMSTMGMYIVLVFFAAQFVNFFKWTNFGTIFAINGAEFLTNIGMTGPIIFLFFIMVCGFVNLMLGSASAQWAITAPIFVPMLMLVGYSPEVIQAAYRIGDSVTNVITPMMSYFGLILAVAARYKKDLGIGTLVAMMLPYSMFFFVGWSVLFFLWVFVFGFPVGPAAPTYYN | not failed
19 | MQSRLSKILRSSVVGVAVLALLAGCSNNADDTDADSTSTGNSAFPVSIEHEFGTTTIDDVPERVVTLGVTDADIVLALGTVPVGNTGYKFFENGLGPWTDELVEGKELTLLDSDSTPDLEQVAALEPDLIIGVSAGFDDVVYEQLSDIAPVVARPAGTAAYAVAREEATNLVARAMGQSEKGQELNEETDALIQAARDENPSFDGKTGTVILPYQGKYGAYLPGDARGQFLDSLGISLPEAVLSRDTGDSFFVDVPAESVKDVDGDVLLVLSNDENLDITAENPLFETLNVVQKDAVIVATTEERGAITYNSVLSVPFALEHLAPRIAEALK | failed
20 | MQSYSDSKPGGATFALFETEHLKANIRRALVEAVLSPWQRTFLSDVLSKLERYGNRARLSHKQLLKLNEILGGNGTPRQDRVTTSRTTRHTRRPRFRSPSFLSRQIRWSRRRLARDAVVVALIVMVGLLYSVFETGPVQSFLGTVGKSSHVMGPVDQAFTVTDGDTVHVAGERAGTRLVGFNTPEKFSPQCEYERKLGERASSRLRELVKSPNLQLTKVPCACPAGSEGTDACNHGRSCGVLKVDGRDVGQILIGEGLAVPFICEGNRCPRTPRPWCGQQS | failed
21 | MQTINTHPVQPLKLDSEVQRQMNFQFLTAMKAFFTLLTTEDNIDAVDELSSILIHSRAFELAAESMQTDPEVAHLIKERYYAPVHDVEQLLQYPADSLGYLYASTLKESGFERIDPEIIVNSDTAYIEHRWQQTHDIWHLVTGFSASGIDEIGLQAFYLAQFRLPLASMLIANALMSATLLAPEDLPQLLQTIERGWTMGLQAKPLFAQKWEEAWEKPLSQWRDELNIQAFS | failed

Reference: a protein production outcome set (Wang et al. 2014)
